Reference: patent US20250326842A1 (BEIGENE SWITZERLAND, published 2025)
Residue numbers refer to the chain shown, from its start.

Legend:
human PVRIG-mIgG2a [1] = target: T1, human PVRIG-mIgG2a (human, UniProt Q6DKI7 41-171, limits assumed); experiment: cell-based competition, BGA384 against binding of hPVRIG-mIgG2a (300 ng/ml) to Farage-hPVRL2 cells, flow cytometry
T1 construct: also called hPVRIG-mIgG2a; hPVRIG; not shown: mouse IgG2a Fc
T1 sequence: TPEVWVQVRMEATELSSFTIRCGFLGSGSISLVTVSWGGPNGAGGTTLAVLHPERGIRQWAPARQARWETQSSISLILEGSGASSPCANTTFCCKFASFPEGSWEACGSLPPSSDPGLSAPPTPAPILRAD
Source text: The bound human PVRIG was detected with PE anti-mouse IgG2a antibody by flow cytometry.

[2] = target: T2, human PVRIG expressed on cells (human, UniProt Q6DKI7 41-326); experiment: flow cytometry on HuPVRIG-overexpressed Jurkat cells
T2 construct: Jurkat cells engineered to express human PVRIG; also called hPVRIG-Jurkat; native human PVRIG
T2 sequence: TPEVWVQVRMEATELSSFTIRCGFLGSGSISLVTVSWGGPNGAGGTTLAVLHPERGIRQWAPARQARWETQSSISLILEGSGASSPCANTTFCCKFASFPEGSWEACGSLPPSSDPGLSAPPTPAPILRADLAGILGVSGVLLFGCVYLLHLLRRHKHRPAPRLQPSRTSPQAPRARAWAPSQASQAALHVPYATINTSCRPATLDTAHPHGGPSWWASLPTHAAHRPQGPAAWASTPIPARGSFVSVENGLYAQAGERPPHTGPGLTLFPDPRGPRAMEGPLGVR

[3] = target: T2, human PVRIG expressed on cells; experiment: cell-based or functional assay
[4] = target: T3, Human Serum Albumin Protein His Tag (human, UniProt P02768 25-609); experiment: immunohistochemistry on protein smears, Biotin-BGA384
T3 construct: also called negative control protein smear; not shown: His tag
T3 sequence (P02768 25-609 limits assumed): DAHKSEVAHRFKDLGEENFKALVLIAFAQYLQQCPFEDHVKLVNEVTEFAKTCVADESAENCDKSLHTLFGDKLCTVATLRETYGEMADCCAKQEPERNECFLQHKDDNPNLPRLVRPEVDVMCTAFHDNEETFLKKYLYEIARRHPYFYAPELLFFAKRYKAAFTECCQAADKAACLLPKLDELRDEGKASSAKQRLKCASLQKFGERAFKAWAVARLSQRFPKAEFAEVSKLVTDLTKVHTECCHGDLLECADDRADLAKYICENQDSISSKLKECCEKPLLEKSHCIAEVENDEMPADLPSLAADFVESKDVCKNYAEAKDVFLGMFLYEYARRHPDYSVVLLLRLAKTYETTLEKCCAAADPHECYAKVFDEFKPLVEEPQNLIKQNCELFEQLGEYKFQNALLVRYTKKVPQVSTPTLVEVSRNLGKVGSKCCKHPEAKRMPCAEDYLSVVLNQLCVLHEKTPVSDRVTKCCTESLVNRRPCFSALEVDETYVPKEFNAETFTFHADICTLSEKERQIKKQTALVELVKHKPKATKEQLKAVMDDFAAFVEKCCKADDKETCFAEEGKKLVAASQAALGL
Source text: Materials and Methods: A total of 35 tissue types, each in triplicate from 3 donors, were used for the evaluation. […] 0.5 and […] Biotin-Human IgG1-Kappa (IgG1 isotype control), and 0.01 mol/L phosphate-buffered saline (reagent control).

human PVRIG-mIgG2a [5] = target: T1, human PVRIG-mIgG2a; experiment: ELISA, hPVRIG-mIgG2a coated at 0.5 µg/mL
Human C1q = Human C1q (human, UniProt P02745 23-245; P02746 28-253; P02747 29-245); experiment: ELISA: plate coated with increasing amounts of antibody, human C1q at 8 µg/mL, anti-C1q antibody detection
Human C1q, sequence (P02745 23-245 limits assumed, chain 1 of 3): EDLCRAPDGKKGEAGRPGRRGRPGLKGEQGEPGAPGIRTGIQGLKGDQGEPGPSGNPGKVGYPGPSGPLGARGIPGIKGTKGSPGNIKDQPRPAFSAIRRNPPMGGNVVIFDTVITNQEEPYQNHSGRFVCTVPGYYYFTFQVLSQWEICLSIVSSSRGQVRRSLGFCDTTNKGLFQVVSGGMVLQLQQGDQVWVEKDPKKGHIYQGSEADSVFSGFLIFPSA
Human C1q, sequence (P02746 28-253 limits assumed, chain 2 of 3): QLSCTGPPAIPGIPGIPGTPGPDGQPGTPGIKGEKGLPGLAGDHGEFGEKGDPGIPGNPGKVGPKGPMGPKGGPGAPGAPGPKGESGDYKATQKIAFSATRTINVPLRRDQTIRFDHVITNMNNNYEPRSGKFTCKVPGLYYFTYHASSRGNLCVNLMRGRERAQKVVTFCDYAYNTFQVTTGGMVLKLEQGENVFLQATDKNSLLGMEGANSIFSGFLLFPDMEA
Human C1q, sequence (P02747 29-245 limits assumed, chain 3 of 3): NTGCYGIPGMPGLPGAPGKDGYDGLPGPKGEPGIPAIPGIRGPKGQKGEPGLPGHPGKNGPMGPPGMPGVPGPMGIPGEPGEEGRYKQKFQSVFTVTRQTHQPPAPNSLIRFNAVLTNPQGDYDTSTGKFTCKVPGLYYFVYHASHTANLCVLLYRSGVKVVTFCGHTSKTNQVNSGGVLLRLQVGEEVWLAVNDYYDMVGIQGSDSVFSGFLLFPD
Protocol: Human C1q (100 uL total: 8 μg/mL) was incubated in the antibody-coated wells. Bound C1q was detected by a specific anti-C1q monoclonal antibody. ELISA readings at 450 nm were plotted on the y-axis.

hPVRIG-ECD-his = target: T4, hPVRIG-ECD-his (human, UniProt Q6DKI7 41-171); experiment: SPR (Biacore), BGA384 captured via anti-human Fc, human PVRIG-His analyte
T4 construct: Acrobiosystems PVG-H52H4; also called hPVRIG-His; human PVRIG-His; not shown: His tag
T4 sequence: T1 sequence
Protocol: SPR koff and kₒₙ were calculated using the one-to-one Langmuir binding model (BIA Evaluation Software, GE Life Sciences); KD was calculated as the ratio of koff/kₒₙ.

[6] = target: T5, human PVRIG recombinant protein (human, UniProt Q6DKI7 41-171); experiment: competition ELISA, BGA384 against biotinylated human PVRL2 (Fc-Avi-tag) on coated human PVRIG
T5 construct: also called human PVRIG protein; recombinant human antigen PVRIG
T5 sequence: T1 sequence

[7] = target: T2, human PVRIG expressed on cells; experiment: flow cytometry on Jurkat cells expressing human PVRIG, anti-hFc-647 detection [panel B]
Protocol: To evaluate the binding activity of anti-PVRIG antibodies to native PVRIG on living cells, Jurkat cells were engineered to express human PVRIG. Jurkat cells expressing PVRIG were seeded in 96 well plates and were incubated with serially diluted anti-PVRIG antibodies. […] EC50 values for dose dependent binding to human native PVRIG were determined by fitting the dose response data to the four-parameter logistic model with GraphPad Prism™.

FcγRIIIA F158 = FcγRIIIA F158 (human, UniProt P08637 17-208, limits assumed); experiment: Biacore, KD from equilibrium analysis
FcγRIIIA F158, sequence (P08637 17-208 limits assumed): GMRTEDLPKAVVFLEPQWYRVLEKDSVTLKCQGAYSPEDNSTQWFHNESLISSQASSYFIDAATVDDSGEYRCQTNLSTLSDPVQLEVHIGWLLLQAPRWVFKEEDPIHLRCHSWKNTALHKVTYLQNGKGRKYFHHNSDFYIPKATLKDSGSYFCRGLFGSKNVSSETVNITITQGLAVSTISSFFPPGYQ
Protocol: (§1) K¹ (M) values were calculated from the ratio of the kinetic constants as KD=koff/kₒₙ. K2 (M) values were determined by the analyte concentration at which half of the ligands are occupied at equilibrium.

FcγRIIIA V158 = FcγRIIIA V158 (human, UniProt P08637 17-208, limits assumed); experiment: Biacore, KD from equilibrium analysis
FcγRIIIA V158, sequence (P08637 17-208 F176V limits assumed): as the sequence (P08637 17-208 limits assumed) above, with F160V counted along it
Protocol: as §1

FcγRIIB = target: T6, FcγRIIB (human, UniProt P31994 46-217, limits assumed); experiment: Biacore, KD from equilibrium analysis
T6 sequence (looked up): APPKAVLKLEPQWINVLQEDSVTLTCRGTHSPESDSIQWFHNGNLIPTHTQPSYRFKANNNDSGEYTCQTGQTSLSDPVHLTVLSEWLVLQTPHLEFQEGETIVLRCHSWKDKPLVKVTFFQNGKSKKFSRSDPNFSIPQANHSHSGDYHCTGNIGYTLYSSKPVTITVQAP
Protocol: as §1

FcγRIIA H131 = target: T7, FcγRIIA H131 (human, UniProt P12318 36-218, limits assumed); experiment: Biacore, KD from equilibrium analysis
T7 sequence (looked up): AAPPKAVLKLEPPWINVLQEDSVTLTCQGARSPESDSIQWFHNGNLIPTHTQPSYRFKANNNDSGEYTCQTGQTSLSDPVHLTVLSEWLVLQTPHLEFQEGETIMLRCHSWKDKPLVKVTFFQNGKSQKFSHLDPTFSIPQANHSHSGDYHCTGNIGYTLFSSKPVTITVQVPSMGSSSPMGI
Protocol: as §1

FcγRIIA R131 = target: T8, FcγRIIA R131 (human, UniProt P12318 36-218, limits assumed); experiment: Biacore, KD from equilibrium analysis
T8 sequence (looked up): T7 sequence (looked up) with H132R
Protocol: as §1

B1: BGA384 (antibody, human IgG1, kappa)
heavy: not shown
light: QIVLTQSPATLSLSPGERATLSCSAGSSVNYMHWFQQKPGQAPRLLIYSTSNLASGVPARFSGSGSGTDYTLTISSLEPEDFAVYYCQQRSSLPFTFGQGTKLEIKRTVAAPSVFIFPPSDEQLKSGTASVVCLLNNFYPREAKVQWKVDNALQSGNSQESVTEQDSKDSTYSLSSTLTLSKADYEKHKVYACEVTHQGLSSPVTKSFNRGEC
notes: also called BGB-A538; BGA384 WT
B1 was tested, and the IC50 (human PVRIG-mIgG2a [1]) was 0.109 µg/mL, the EC50 [2] was 0.0269 µg/mL and the “EC50 of promoter-driven luminescence, JK-NFAT-HuPVRIG with A549/OS8-H cells” value [3] was 0.0377 µg/mL. The binding result [4] was “no binding (tested: 0.5 and 1 µg/mL)”, the EC50 (human PVRIG-mIgG2a [5]) was 0.00879 µg/mL and the “EC50 (read off the curve)” value (Human C1q) was about 2 µg/mL. For the same binder, the Kd (hPVRIG-ECD-his) was 0.0826 nM, the koff (hPVRIG-ECD-his) was 0.000344 s⁻¹ and the kon (hPVRIG-ECD-his) was 4.16e+06 M⁻¹ s⁻¹. The IC50 [6] was 0.383 µg/mL, the “EC50 (read off the curve)” value [7] was about 0.03 µg/mL and the Kd (FcγRIIIA F158) was 689 nM. It also gave a Kd (FcγRIIIA V158) of 297 nM, a Kd (FcγRIIB) of 9230 nM and a Kd (FcγRIIA H131) of 1480 nM. For the same binder, the Kd (FcγRIIA R131) was 1920 nM.
